Results from patent US12006344 (Novo Nordisk, dated 2024).

T1: human MIC-1 receptor (hGFRAL, GDNF family receptor alpha like) (human, UniProt Q6UXV0 19-394)
T1 sequence (looked up): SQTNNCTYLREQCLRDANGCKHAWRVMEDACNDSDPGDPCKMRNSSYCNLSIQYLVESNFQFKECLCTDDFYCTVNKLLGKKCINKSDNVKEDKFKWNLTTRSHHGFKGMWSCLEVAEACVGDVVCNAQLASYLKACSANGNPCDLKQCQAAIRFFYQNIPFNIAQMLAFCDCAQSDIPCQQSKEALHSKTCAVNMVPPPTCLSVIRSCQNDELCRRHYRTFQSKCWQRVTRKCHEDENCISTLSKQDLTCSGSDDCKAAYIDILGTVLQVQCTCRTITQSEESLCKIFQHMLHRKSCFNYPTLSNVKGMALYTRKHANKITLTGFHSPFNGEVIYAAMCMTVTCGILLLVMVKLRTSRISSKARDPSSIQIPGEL


How the values were obtained:
[1] = target: human MIC-1 receptor (hGFRAL, GDNF family receptor alpha like) (human) (UniProt Q6UXV0); experiment: cell-based or functional assay
[2] = target: T1, human MIC-1 receptor (hGFRAL, GDNF …); experiment: cell-based or functional assay

| pERK EC50 (nM) [1] [nM] | pERK EC50 (nM) [2] [nM] | pERK Emax (%) [2] [%] | Molecule |
| --- | --- | --- | --- |
| 3.6 | – | – | HSA-GGSSSGS (SEQ ID NO: 152)-MIC-1 (SEQ ID NO: 1) (from UniProt Q99988 197-308) (ligand) |
| – | 0.3 | 100 | TSESATPESGPGTSESATPESGPG-MIC-1(R2A, N3E) (ligand) TSESATPESGPGTSESATPESGPGAAEGDHCPLGPGRCCRLHTVRASLEDLGWADWVLSPREVQVTMCIGACPSQFRAANMHAQIKTSLHRLKPDTVPAPCCVPASYNPMVLIQKTDTGVSLQTYDDLLAKDCHCI |
| – | 0.3 | 100 | MIC-1(R2A, N3E, A54E) (ligand) AAEGDHCPLGPGRCCRLHTVRASLEDLGWADWVLSPREVQVTMCIGACPSQFREANMHAQIKTSLHRLKPDTVPAPCCVPASYNPMVLIQKTDTGVSLQTYDDLLAKDCHCI |
| – | 0.3 | 100 | MIC-1(R2A, N3E, A81E) (ligand) AAEGDHCPLGPGRCCRLHTVRASLEDLGWADWVLSPREVQVTMCIGACPSQFRAANMHAQIKTSLHRLKPDTVPAPCCVPESYNPMVLIQKTDTGVSLQTYDDLLAKDCHCI |
| – | 0.5 | 100 | AAPEDEETPEQEGSGSGSGSGS-MIC-1-Δ1-3 (ligand) AAPEDEETPEQEGSGSGSGSGSGDHCPLGPGRCCRLHTVRASLEDLGWADWVLSPREVQVTMCIGACPSQFRAANMHAQIKTSLHRLKPDTVPAPCCVPASYNPMVLIQKTDTGVSLQTYDDLLAKDCHCI |
| – | 0.5 | 100 | AAPDEGTEEETEGSGSGSGSGS-MIC-1-Δ1-3 (ligand) AAPDEGTEEETEGSGSGSGSGSGDHCPLGPGRCCRLHTVRASLEDLGWADWVLSPREVQVTMCIGACPSQFRAANMHAQIKTSLHRLKPDTVPAPCCVPASYNPMVLIQKTDTGVSLQTYDDLLAKDCHCI |
| – | 0.5 | 100 | AAPEDEETPEQE-MIC-1-Δ1-3 (ligand) AAPEDEETPEQEGDHCPLGPGRCCRLHTVRASLEDLGWADWVLSPREVQVTMCIGACPSQFRAANMHAQIKTSLHRLKPDTVPAPCCVPASYNPMVLIQKTDTGVSLQTYDDLLAKDCHCI |
| – | 0.4 | 100 | SEPATSGSETPGTSESATPESGPGTSTEPS-MIC-1-Δ1-3 (ligand) SEPATSGSETPGTSESATPESGPGTSTEPSGDHCPLGPGRCCRLHTVRASLEDLGWADWVLSPREVQVTMCIGACPSQFRAANMHAQIKTSLHRLKPDTVPAPCCVPASYNPMVLIQKTDTGVSLQTYDDLLAKDCHCI |
| – | 0.7 | 100 | AASPAGSPTSTEEGTSESATPESGPG-MIC-1-Δ1-3 (ligand) AASPAGSPTSTEEGTSESATPESGPGGDHCPLGPGRCCRLHTVRASLEDLGWADWVLSPREVQVTMCIGACPSQFRAANMHAQIKTSLHRLKPDTVPAPCCVPASYNPMVLIQKTDTGVSLQTYDDLLAKDCHCI |
| – | 0.7 | 100 | …-MIC-1-Δ1-3 (ligand) SEPATSGSETPGTSTEPSEGSAPGGDHCPLGPGRCCRLHTVRASLEDLGWADWVLSPREVQVTMCIGACPSQFRAANMHAQIKTSLHRLKPDTVPAPCCVPASYNPMVLIQKTDTGVSLQTYDDLLAKDCHCI |
| – | 0.6 | 60 | (SEPATSGSETPG)2-MIC-1-Δ1-3(M57E) (ligand) SEPATSGSETPGSEPATSGSETPGGDHCPLGPGRCCRLHTVRASLEDLGWADWVLSPREVQVTMCIGACPSQFRAANEHAQIKTSLHRLKPDTVPAPCCVPASYNPMVLIQKTDTGVSLQTYDDLLAKDCHCI |
| – | 0.6 | 100 | (SEPATSGSETPG)2-MIC-1-Δ1-3(M57L) (ligand) SEPATSGSETPGSEPATSGSETPGGDHCPLGPGRCCRLHTVRASLEDLGWADWVLSPREVQVTMCIGACPSQFRAANLHAQIKTSLHRLKPDTVPAPCCVPASYNPMVLIQKTDTGVSLQTYDDLLAKDCHCI |
| – | 0.4 | 100 | (SEPATSGSETPG)2-MIC-1-Δ1-3(M86L) (ligand) SEPATSGSETPGSEPATSGSETPGGDHCPLGPGRCCRLHTVRASLEDLGWADWVLSPREVQVTMCIGACPSQFRAANMHAQIKTSLHRLKPDTVPAPCCVPASYNPLVLIQKTDTGVSLQTYDDLLAKDCHCI |
| – | 0.4 | 100 | (SEPATSGSETPG)2-MIC-1-Δ1-3 (ligand) SEPATSGSETPGSEPATSGSETPGGDHCPLGPGRCCRLHTVRASLEDLGWADWVLSPREVQVTMCIGACPSQFRAANMHAQIKTSLHRLKPDTVPAPCCVPASYNPMVLIQKTDTGVSLQTYDDLLAKDCHCI |
| – | 0.4 | 100 | AASPAGSPTSTEEGTSESATPESGPG-MIC-1 (SEQ ID NO: 1) (ligand) AASPAGSPTSTEEGTSESATPESGPGARNGDHCPLGPGRCCRLHTVRASLEDLGWADWVLSPREVQVTMCIGACPSQFRAANMHAQIKTSLHRLKPDTVPAPCCVPASYNPMVLIQKTDTGVSLQTYDDLLAKDCHCI |
| – | 0.4 | 100 | (SEPATSGSETPG)2-MIC-1-Δ1-3(M57L, M86L) (ligand) SEPATSGSETPGSEPATSGSETPGGDHCPLGPGRCCRLHTVRASLEDLGWADWVLSPREVQVTMCIGACPSQFRAANLHAQIKTSLHRLKPDTVPAPCCVPASYNPLVLIQKTDTGVSLQTYDDLLAKDCHCI |
| – | 0.8 | 100 | A(GPEQGQEP)3-MIC-1-Δ1-3 (ligand) AGPEQGQEPGPEQGQEPGPEQGQEPGDHCPLGPGRCCRLHTVRASLEDLGWADWVLSPREVQVTMCIGACPSQFRAANMHAQIKTSLHRLKPDTVPAPCCVPASYNPMVLIQKTDTGVSLQTYDDLLAKDCHCI |
| – | 0.4 | 100 | SEPATSGSETPGTSESATPESGPG TSTEPSEG-MIC-1-Δ1-3 (ligand) SEPATSGSETPGTSESATPESGPGTSTEPSEGGDHCPLGPGRCCRLHTVRASLEDLGWADWVLSPREVQVTMCIGACPSQFRAANMHAQIKTSLHRLKPDTVPAPCCVPASYNPMVLIQKTDTGVSLQTYDDLLAKDCHCI |
